{
  "source": "paper PMC4520572",
  "target": "soluble neuronal SNARE complex (unlabeled) (UniProt P32851)",
  "sequence (P32851 1-265 S249C/K253C, chain 1 of 3)": "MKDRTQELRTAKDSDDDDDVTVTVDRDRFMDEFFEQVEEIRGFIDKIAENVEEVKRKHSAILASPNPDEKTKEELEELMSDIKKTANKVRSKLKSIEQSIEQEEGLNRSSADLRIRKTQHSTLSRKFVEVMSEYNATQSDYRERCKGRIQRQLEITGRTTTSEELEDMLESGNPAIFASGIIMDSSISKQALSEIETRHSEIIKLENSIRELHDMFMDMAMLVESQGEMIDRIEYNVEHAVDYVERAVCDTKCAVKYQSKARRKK",
  "sequence (P60881 other isoform, or with tags, fused parts or gaps, chain 2 of 3, further chain)": "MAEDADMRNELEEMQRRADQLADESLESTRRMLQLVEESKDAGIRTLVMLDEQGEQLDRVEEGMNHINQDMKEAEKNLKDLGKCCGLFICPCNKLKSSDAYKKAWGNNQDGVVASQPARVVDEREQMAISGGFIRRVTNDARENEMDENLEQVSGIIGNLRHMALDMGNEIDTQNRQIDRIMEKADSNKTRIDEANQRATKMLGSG",
  "sequence (P63045 1-96, chain 3 of 3, further chain)": "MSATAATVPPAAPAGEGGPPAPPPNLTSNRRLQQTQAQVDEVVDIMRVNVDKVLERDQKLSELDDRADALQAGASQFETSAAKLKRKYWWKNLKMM",
  "data": [
    {"substance": "N-Ethylmaleimide-sensitive factor (NSF) (from UniProt P18708 1-744) (enzyme)", "values": [
      {"measurement": "SNARE-dependent activation of the ATPase activity of NSF (coupled ATPase assay, 37 °C, with α-SNAP, KCl and NaCl omitted)", "value": 26, "unit": "fold"}
    ]},
    {"substance": "α-soluble NSF attachment protein (α-SNAP) (from UniProt P54921 1-295) (natural protein)", "values": [
      {"measurement": "SNARE-dependent activation of the ATPase activity of NSF (coupled ATPase assay, 37 °C; activation was dependent on α-SNAP)", "value": 26, "unit": "fold"}
    ]}
  ]
}
